The values that follow come from the nanobody polyreactivity screen of Harvey et al. (2022).

A short description of this data set: yeast display, Sf9 membrane polyspecificity reagent, FACS + sequencing; frameworks hold sequencing errors. The method in brief: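 A synthetic nanobody library was expressed on Saccharomyces cerevisiae BJ5465 by galactose induction for 36–48 hours. The library was stained for 1 hour at 4 °C with 10% biotinylated, detergent-solubilized Sf9 membrane reagent and enriched with streptavidin microbeads before FACS. Low and high (top ~1%) gates were set on anti-HA fluorescence for expression and streptavidin fluorescence for reagent binding, and each polyreactivity label reflects the gate of origin.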
With “QVHLVESGGGLVQAGCSLRLSCAASGFTYYYYAIGWYRQAPGTEMELVAAISSGGSTNYADSVKGRFTISRDNANNTVYLQMNSLKPEDTAVYYCAATQPYWWAYRYDYWGQGTKVTVSS”, the “polyreactivity (PSR sort gate)” value is reported as “low polyreactivity”.
In the case of “QVHLVESGGGLVQAGGCLRLSCAASGSIVGYNTMGWYRQAPGKERALVAAISSSGTSTNYPDSVKGRFTISRDNAKNTVYLQMNSLKPDDTAVFYCNTVLRVWSRSGYDYWGQGSQVTVSS” it was “high polyreactivity”; in that of “QVHLVESGGGLVQAGGILRLSCAASGSIFLYYAMGWYRQAPGKERELVAAITGGGGTNYADSVKGRFTISRDNAKNTFYLQMNSLKPEDTAVYYCGADPSGQFPYSYYNYDYDYWGQGTQVTVSS”, “low polyreactivity”; in that of “QVHLVESGGGLVQAGGRLRLSCAASGFTYYRYTMGWYRQAPGKERELVAAISWNGGRTYYADSVKGRFTISRDNAKNTVYLQMNSLKPEDTAVYYCAAVQHYTNRYPAVDYWGQGTQVTVSS”, “high polyreactivity”.
Then “QVHLVESGGGLVQAGGRLRLSCAASGNTFYQYAMGWYRQAPGKERELVAAISSSGGSTYYADTVKGRFTISRDNAKNTVYLQMNSLKPEDTGVYYCATDKWYGYYYWGQGTQVTVSS”, with “low polyreactivity”.
In the case of “QVHLVESGGGLVQAGGRLRLSCAASGRIFYTYAMGWYRQAPGKERELVAAITSGGSTYYADSVKGRFTISRDNAKNTVYLQMNSLKPEDTAVYYCNKVSYYRNEYWGQGSQVTVSS” it was “high polyreactivity”.
In the case of “QVHLVESGGGLVQAGGSHRLSCAASGFTIHRYAMGWYRQAPGKERELVAGITRRSGSTFYADSVKGRFTISRDNAKNTVFLQMNSLKPEDTAVYYCAATVPGLHWIYDYWGQGTQVTVSS”, the “polyreactivity (PSR sort gate)” value is given as “high polyreactivity”.
For the sequence “QVHLVESGGGLVQAGGSLGLSCAASGNIFSSNAMGWYTQAPGKERELVDAITRSGGSTYYADSVKGRFTISRDNAKKTVYLQLNSQKPEDTAVYYGAARHYPRNSWGYDYWGQGTQVTVSS”, the “polyreactivity (PSR sort gate)” value is “high polyreactivity”.
In the case of “QVHLVESGGGLVQAGGSLLLSCAASGSTQLGNAMGWYRQAPGKERELVAAISTSGDSTNYADSVKGRFTISRDNAKNTVYLEMNSLKPEDTAVYYCNAGGYLNSDVDRVGYWGQGTQVTVSS” it was “low polyreactivity”.
In the case of “QVHLVESGGGLVQAGGSLRISCAASGSIFKGYAMGWYRQAPGKERELVAAITIDGSTYYADSVKGRFTISRDNAKNTVYLQMNSLKPEDTAVYYCDAVYLWYGSWPLHFAAYDYWGQGTQVTVSS” it was “low polyreactivity”; in that of “QVHLVESGGGLVQAGGSLRISCAASGSNFSYYARGWYRQAPGKESELVAAISQSGGTTYYADSVKGRFTISRDHAKNTVYLQMNCLKPEDTAVYYCAARAPSSFDTQYYYWGLGTQVTVSS”, “low polyreactivity”; in that of “QVHLVESGGGLVQAGGSLRISCAASGSSFSIYAMGSYRQAPGKERELVAAITCTVGSTYYADSVKGRFTISRDIAKYTVYLPLNSLKPEDTAVYYFAARQVNYDYDFWGQGTQVTVSS”, “low polyreactivity”.
For the sequence “QVHLVESGGGLVQAGGSLRISCAATGYTFLYNAMGWYRQAPGKEREFVAGIRRSVGSTYYADSVKGRFTISRDNAKNTVYLQMNSMTREDTAVYYCALVPALYRYRVGTYAYDYWGQGTQVTVSS”, the “polyreactivity (PSR sort gate)” value is given as “low polyreactivity”.
Then “QVHLVESGGGLVQAGGSLRLCCAASGITFQVYAKGCYRPAPGKERELVAAINWSGTRTYYADSVKGRFTISRDNAKNTVYLQMNSLKPEDTAVYYCAAAERSLGYYYWGQGTQVTVTS”, with “high polyreactivity”.
In the case of “QVHLVESGGGLVQAGGSLRLICAASGFTFDFYAMGWYRQAPGKERELVAAISKNDGTTYYADSVKGRFTISRDNAKNTVYLQMYSLKPEDTAVYYCAAESGYPVYTYVSSGDYWGQGTQVTVSS” it was “low polyreactivity”; in that of “QVHLVESGGGLVQAGGSLRLICAASGRIFIVYAMGWYRQAPGKERELVAVITGGGSTNYADSVKGRFTISRDNAKNSVYLQMNSLKPEDTAVYYCATEGYGHGGETVGGVYSDLGYWGQGTQVTVSS”, “low polyreactivity”; in that of “QVHLVESGGGLVQAGGSLRLICAASGSIYTPNAMGWYRQAPGKETELVAAISSSSDRTYYADSVTGRFTISRDNAKNTFYLQMNSLKPEDTEVYYCNADLRGHGRGTDQYIFDYWGQGTQVTVSS”, “high polyreactivity”.
Then “QVHLVESGGGLVQAGGSLRLRCAASGGTSRSYAKGWYRPAPGKERELVAAISWRGGRTYYADSVKGRFTISRDNAKNTVYFQMNRLKPEDTAVYDCAARLPGYYGIGDYWGLGTQVTVSS”, with “high polyreactivity”; and “QVHLVESGGGLVQAGGSLRLSCAAAGRTFSSYAMAWYRQAPWQERELVAAITSGGTTYYADSVKGRFTISRDNAKNTVDLQMNSLKAEDPAFYYCARRSYLYDSYLTKKKYYDYCGQGTQVTVSS”, with “low polyreactivity”.
As for “QVHLVESGGGLVQAGGSLRLSCAASGFIFEPYAMGCYRQAPWKEWELVAAISSGGSTYADSVKGRFTISRDNAKNTVYLQMISLKPEDTAVYYCAADSYYSVWGFYFWGQGTQVTVSS”, the “polyreactivity (PSR sort gate)” value is reported as “low polyreactivity”.
Then “QVHLVESGGGLVQAGGSLRLSCAASGFIFKFDAMGWYRQAPGKEREMVAAITASSGRTNYADSVKGRFTISRDNAKNTVYLHMNSLKPEDTAVYFCAARRWPKYSAYRYDYWGQGTQVTVSS”, with “high polyreactivity”; and “QVHLVESGGGLVQAGGSLRLSCAASGFIFKKYAMGWYRQAPGKERELVAAIDSSGSTTYADSVKGRFTISRDNAKNTVYLQMNSLKPEDTAVYYCAAPFTVYRHAPDMDYWGQGTQVTVSS”, with “low polyreactivity”.
Then “QVHLVESGGGLVQAGGSLRLSCAASGFIFQYYAMGWYRQAPGKEREMVAAINRGGGTHYADSVQGRFTISRDNAKNTVYLQMNSLKPEVTAVYYCNKVYYWPGSRPSRYEYWGQGTQVTVSS”, with “low polyreactivity”.
Then “QVHLVESGGGLVQAGGSLRLSCAASGFIFRIYAMGWYRQAPGKERELVAAINSSVSTSYADSVKGRFTISRDNAKNTVYLQMNSLKPEDTAVYYCAASRWPYPSYLYIVDSWGQGTQVTVSS”, with “low polyreactivity”.
As to “QVHLVESGGGLVQAGGSLRLSCAASGFIFYSNMGWYRQAPGKESEFVAAITWRGGSTYADSVKRRFTISRDNAKNSVYLQMNILKPEDPAVSYCAGESYRAHTPGHPSCTRFGYWGQGTHVTVSS”, the “polyreactivity (PSR sort gate)” value is recorded as “high polyreactivity”.
In the case of “QVHLVESGGGLVQAGGSLRLSCAASGFTFDTYDMGWYRQAPGKERELVAAIDRSGVSTYYADSVKGRFTISRDTAKNTVYLQMNSLKQEDPAVYYCAADLWQYDIASWDYTYDYWGQGTQVTVSS” it was “low polyreactivity”.
As for “QVHLVESGGGLVQAGGSLRLSCAASGFTFEGYAMGGYRQQPGKEREYADSVKGRFTISRDNAKNTVYLQMNSLKPEDTAVYYCASTSYVSSSRTIYSGFVEFEYLGQGTQVTVSS”, the “polyreactivity (PSR sort gate)” value is listed as “low polyreactivity”.
Consider “QVHLVESGGGLVQAGGSLRLSCAASGFTFESYAMGWYRQAPGKERELVAAISDGGGDTYYADSVKGRFTISRDNAKNTVYLQMNSLKQEDTAVYYCAAEWDGNWYRGAGGYDYWGQGTQVTVSS”, for which the “polyreactivity (PSR sort gate)” value is “low polyreactivity”.
In the case of “QVHLVESGGGLVQAGGSLRLSCAASGFTFNGYAMGWYRQAPGKESEMVAGITRRGGITYYADSVKGRFTISRYNAKNTVYLQMNSLKPEETAVYYCARDYIGHALIHHASLYYYWGQGTQVTVSS” it was “high polyreactivity”; in that of “QVHLVESGGGLVQAGGSLRLSCAASGFTFVRNAMGWYRQAPGKERELVAAISGSGGSTYYADSVKGRFTISRDTAKNTVYLQMNSLKPEDTAVYYCAAGWTRGWSLDYYYWGQGTQVTVSS”, “high polyreactivity”; in that of “QVHLVESGGGLVQAGGSLRLSCAASGFTFVRYAMGWYRQAPGKERELVASISYSGGSTYYADSVKGRFTISRDNAKNTVYLQMNSLKPEDTAVYYCAALHRINTLLLPMDYWGQGTQVTVSS”, “high polyreactivity”.
Consider “QVHLVESGGGLVQAGGSLRLSCAASGFTIAFNAMGSYRQAPGKERELVASITGGGSTNYADSVKGRFTISRDNAKNTVYLQMNSLKPEDTAVYYCAARYFWAWERDLFLEFDYWGQGTQVTVSS”, for which the “polyreactivity (PSR sort gate)” value is listed as “low polyreactivity”.
In the case of “QVHLVESGGGLVQAGGSLRLSCAASGFTLANYAMGWYRQPPGKERELVAAIDYSGGGTYYADSVKGRFTISRDNAKNTVYLQMNSLKPEDTAVYYCAARRWSYYSAKYDYWGQGTQVTVSS”, the “polyreactivity (PSR sort gate)” value is reported as “low polyreactivity”.
On to “QVHLVESGGGLVQAGGSLRLSCAASGGIFFPNAMGWYRQAPWKERELVAAISWSAGSTYYADSVKGRFTISRDNAKNTVYLELNSVKPEDTAVYYCAAAGSKNTVLYGYYYWGQGTQVTVSS”, for which the “polyreactivity (PSR sort gate)” value was “low polyreactivity”.
In the case of “QVHLVESGGGLVQAGGSLRLSCAASGGIFYPNAMGWYRQAPGKERELVAAISSGGGSTYYADSVKGRFTISRDNAKNTVYLQMNSLKPEDTAVYYCAASAYSLKSDVEYDYWGQGTLVTVSS” it was “low polyreactivity”.
Then “QVHLVESGGGLVQAGGSLRLSCAASGGTFSVYGMGWYRPAPGKERELVAAITVTGGRTYYADSVKGRFTISRDNAKNTVYLQMNSLKPVDSAVYYCNTLPWSRTKRDYWGQGTQVTVSS”, with “low polyreactivity”.
As for “QVHLVESGGGLVQAGGSLRLSCAASGIIFPSYAMGWYRQAPGKERELVAAIDGSGGITYYADSVKGRFTISRDNAKNTVYLQLNSLKPEDTAVYYCNAEREYYDYGNDDYWGPGTQVTVSS”, the “polyreactivity (PSR sort gate)” value is listed as “low polyreactivity”.
Then “QVHLVESGGGLVQAGGSLRLSCAASGIIFYDNTMGWYRQAPGTERELVASITWRGGSTYYADSVKGRFTISRDNAKNTVYLQMNSLKPEDTAVYYCNADSSDDYDYWGQGTQVTVSS”, with “low polyreactivity”; and “QVHLVESGGGLVQAGGSLRLSCAASGIIFYYYTMGWYRQPPGKERELVASISRDGGSTHYADSVKGRFTISRDNAKNTVYLQMNSLKPEDTAVYYCAARYPTGSSYAFYRRKVYYWGQGTQVTVSS”, with “high polyreactivity”.
In the case of “QVHLVESGGGLVQAGGSLRLSCAASGITFAWYAMGRYRQAPGKERELVAAITRGGGSTYYADSVKGRFTISRDNAKNTGYLQMNSLKPEDTAVYYCAARPYSYPYGYWGQGTQVTVSS”, the “polyreactivity (PSR sort gate)” value was “low polyreactivity”.
